Patent US20060234294A1 (JAPAN SCIENCE AND TECHNOLOGY AGENCY, published 2006)

How the values were obtained:
Test in all cases: co-immunoprecipitation from 293T cells: anti-HA IP, anti-V5 Western blot
[1] = biological target: T1, DOCK2ΔN-HA (amino acid residue 505-1828 of DOCK2, HA tag at the C terminus) (mouse, UniProt Q8C3J5 505-1828)
T1 construct: Expressed in 293T cells; also called PcDNA DOCK2ΔN-HA

DOCK2 SH3 mutant G32E-HA = biological target: T2, DOCK2 SH3 mutant G32E-HA (mouse, UniProt Q8C3J5 1-1828)
T2 construct: Glycine at position 32 of DOCK2 is substituted to glutamic acid; HA tag at the C terminus; Expressed in 293T cells; also called PcDNA G32E-HA
T2 sequence (Q8C3J5 other isoform, or with tags, fused parts or gaps G32E G32E limits assumed): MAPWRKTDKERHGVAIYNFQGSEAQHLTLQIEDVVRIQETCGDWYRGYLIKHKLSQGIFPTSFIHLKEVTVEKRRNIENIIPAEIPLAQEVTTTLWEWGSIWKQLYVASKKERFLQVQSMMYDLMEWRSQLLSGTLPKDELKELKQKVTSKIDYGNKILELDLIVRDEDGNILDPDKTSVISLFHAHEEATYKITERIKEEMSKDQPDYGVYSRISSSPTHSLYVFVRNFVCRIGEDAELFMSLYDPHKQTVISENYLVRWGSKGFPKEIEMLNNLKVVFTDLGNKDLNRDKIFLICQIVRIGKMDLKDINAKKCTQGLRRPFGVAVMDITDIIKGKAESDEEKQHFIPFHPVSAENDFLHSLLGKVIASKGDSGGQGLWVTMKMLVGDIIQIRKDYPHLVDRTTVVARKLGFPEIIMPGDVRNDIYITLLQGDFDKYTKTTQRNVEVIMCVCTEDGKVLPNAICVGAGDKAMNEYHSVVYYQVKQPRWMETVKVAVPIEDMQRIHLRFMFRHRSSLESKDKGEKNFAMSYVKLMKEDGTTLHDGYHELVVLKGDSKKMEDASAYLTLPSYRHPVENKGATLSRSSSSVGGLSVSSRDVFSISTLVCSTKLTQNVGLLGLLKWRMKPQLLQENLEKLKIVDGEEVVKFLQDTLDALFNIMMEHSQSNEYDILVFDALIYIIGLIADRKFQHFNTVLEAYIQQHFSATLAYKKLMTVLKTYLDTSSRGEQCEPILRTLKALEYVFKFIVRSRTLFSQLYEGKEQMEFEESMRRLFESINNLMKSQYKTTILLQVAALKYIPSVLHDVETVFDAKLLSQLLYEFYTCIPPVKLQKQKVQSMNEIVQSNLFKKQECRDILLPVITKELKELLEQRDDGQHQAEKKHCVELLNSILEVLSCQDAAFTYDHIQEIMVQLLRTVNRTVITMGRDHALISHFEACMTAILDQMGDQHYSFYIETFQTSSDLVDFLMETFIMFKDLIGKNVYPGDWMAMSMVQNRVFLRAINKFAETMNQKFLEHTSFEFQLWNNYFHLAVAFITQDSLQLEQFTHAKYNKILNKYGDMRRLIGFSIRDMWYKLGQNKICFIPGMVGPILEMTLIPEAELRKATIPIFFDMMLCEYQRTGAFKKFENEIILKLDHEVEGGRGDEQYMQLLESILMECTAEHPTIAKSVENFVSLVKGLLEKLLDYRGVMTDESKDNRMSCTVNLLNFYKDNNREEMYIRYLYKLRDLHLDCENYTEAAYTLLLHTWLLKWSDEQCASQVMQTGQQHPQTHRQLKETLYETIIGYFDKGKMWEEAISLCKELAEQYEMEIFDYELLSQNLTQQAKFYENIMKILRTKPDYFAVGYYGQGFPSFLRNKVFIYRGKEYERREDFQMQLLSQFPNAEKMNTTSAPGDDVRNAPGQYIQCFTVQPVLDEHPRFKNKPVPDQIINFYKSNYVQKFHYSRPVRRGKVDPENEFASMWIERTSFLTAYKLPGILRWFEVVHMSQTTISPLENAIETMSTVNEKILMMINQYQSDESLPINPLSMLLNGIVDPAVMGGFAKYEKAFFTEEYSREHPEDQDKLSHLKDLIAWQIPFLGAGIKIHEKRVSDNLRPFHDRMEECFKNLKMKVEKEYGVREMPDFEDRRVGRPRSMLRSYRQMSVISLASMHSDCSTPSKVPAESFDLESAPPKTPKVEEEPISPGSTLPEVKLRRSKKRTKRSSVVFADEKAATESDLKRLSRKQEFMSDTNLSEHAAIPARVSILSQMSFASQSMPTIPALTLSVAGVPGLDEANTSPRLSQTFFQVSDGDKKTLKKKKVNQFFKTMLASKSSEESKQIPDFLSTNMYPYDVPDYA

DOCK2 SH3 mutant P60E-HA = biological target: T3, DOCK2 SH3 mutant P60E-HA (mouse, UniProt Q8C3J5 1-1828)
T3 construct: Proline at position 60 of DOCK2 is substituted to glutamic acid; HA tag at the C terminus; Expressed in 293T cells; also called PcDNA P60E-HA
T3 sequence (Q8C3J5 other isoform, or with tags, fused parts or gaps P60E P60E limits assumed): as the sequence (Q8C3J5 other isoform, or with tags, fused parts or gaps G32E G32E limits assumed) above, with E32G, P60E counted along it

DOCK2 SH3 mutant F63E-HA = biological target: T4, DOCK2 SH3 mutant F63E-HA (mouse, UniProt Q8C3J5 1-1828)
T4 construct: Phenylalanine at position 63 of DOCK2 is substituted to glutamic acid; HA tag at the C terminus; Expressed in 293T cells; also called PcDNA F63E-HA
T4 sequence (Q8C3J5 other isoform, or with tags, fused parts or gaps F63E F63E limits assumed): as the sequence (Q8C3J5 other isoform, or with tags, fused parts or gaps G32E G32E limits assumed) above, with E32G, F63E counted along it

[2] = biological target: T5, full length DOCK2 with HA tag at the C terminus (PcDNA DOCK2-HA) (mouse, UniProt Q8C3J5 1-1828)
T5 construct: Expressed in 293T cells from PcDNA/His max vector and tested in cell lysate by co-immunoprecipitation; also called Hch; mouse DOCK2
T5 sequence (Q8C3J5 other isoform, or with tags, fused parts or gaps limits assumed): as the sequence (Q8C3J5 other isoform, or with tags, fused parts or gaps G32E G32E limits assumed) above, with E32G counted along it

[3] = biological target: T6, Tiam1 with HA tag at its C terminus (PCI Tiam1-HA) (mouse, UniProt Q60610 1-1591, limits assumed)
T6 construct: Expressed in 293T cells from the PCI vector; also called mouse Tiam1
T6 sequence (Q60610 other isoform, or with tags, fused parts or gaps limits assumed): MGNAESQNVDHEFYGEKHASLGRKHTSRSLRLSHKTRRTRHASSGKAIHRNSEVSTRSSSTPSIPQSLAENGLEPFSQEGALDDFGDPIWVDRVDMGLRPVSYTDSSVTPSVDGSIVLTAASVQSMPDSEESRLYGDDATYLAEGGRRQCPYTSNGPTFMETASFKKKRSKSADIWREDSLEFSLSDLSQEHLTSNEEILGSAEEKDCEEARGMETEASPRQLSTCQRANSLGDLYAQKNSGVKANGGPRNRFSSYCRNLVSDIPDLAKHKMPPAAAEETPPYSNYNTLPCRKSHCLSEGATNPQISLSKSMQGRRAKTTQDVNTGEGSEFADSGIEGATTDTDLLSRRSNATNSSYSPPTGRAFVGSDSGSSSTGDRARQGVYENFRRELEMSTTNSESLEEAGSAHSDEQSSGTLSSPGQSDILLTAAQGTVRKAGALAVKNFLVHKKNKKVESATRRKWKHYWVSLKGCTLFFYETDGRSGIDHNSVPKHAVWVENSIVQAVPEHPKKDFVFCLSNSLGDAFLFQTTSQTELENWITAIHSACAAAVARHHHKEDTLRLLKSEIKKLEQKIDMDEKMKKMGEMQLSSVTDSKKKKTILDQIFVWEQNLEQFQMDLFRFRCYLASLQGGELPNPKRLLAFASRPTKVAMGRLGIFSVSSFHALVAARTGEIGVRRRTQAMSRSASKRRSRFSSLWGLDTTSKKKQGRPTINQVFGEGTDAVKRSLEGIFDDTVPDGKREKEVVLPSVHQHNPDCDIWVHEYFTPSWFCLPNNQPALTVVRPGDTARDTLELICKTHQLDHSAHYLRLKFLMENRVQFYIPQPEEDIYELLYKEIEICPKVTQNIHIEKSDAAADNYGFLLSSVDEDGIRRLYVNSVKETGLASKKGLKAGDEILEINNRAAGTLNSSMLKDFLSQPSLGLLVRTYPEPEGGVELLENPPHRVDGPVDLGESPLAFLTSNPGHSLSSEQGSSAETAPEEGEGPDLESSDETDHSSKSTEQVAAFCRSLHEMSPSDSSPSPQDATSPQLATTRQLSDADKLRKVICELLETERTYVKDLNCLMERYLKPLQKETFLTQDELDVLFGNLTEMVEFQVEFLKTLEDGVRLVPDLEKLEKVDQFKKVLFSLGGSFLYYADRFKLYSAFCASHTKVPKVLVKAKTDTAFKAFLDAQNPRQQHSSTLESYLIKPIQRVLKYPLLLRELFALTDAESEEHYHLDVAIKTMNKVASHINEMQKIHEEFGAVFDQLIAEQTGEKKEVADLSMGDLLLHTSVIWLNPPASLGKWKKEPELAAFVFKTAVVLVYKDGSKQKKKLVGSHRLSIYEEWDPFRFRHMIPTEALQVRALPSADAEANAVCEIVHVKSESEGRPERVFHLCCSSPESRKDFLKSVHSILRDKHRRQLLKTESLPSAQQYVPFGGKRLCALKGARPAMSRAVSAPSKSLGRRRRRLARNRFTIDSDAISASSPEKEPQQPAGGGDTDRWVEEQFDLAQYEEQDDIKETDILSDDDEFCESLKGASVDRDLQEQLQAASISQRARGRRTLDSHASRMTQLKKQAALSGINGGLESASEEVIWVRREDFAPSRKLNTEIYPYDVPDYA

T1 sequence (Q8C3J5 other isoform, or with tags, fused parts or gaps mutant): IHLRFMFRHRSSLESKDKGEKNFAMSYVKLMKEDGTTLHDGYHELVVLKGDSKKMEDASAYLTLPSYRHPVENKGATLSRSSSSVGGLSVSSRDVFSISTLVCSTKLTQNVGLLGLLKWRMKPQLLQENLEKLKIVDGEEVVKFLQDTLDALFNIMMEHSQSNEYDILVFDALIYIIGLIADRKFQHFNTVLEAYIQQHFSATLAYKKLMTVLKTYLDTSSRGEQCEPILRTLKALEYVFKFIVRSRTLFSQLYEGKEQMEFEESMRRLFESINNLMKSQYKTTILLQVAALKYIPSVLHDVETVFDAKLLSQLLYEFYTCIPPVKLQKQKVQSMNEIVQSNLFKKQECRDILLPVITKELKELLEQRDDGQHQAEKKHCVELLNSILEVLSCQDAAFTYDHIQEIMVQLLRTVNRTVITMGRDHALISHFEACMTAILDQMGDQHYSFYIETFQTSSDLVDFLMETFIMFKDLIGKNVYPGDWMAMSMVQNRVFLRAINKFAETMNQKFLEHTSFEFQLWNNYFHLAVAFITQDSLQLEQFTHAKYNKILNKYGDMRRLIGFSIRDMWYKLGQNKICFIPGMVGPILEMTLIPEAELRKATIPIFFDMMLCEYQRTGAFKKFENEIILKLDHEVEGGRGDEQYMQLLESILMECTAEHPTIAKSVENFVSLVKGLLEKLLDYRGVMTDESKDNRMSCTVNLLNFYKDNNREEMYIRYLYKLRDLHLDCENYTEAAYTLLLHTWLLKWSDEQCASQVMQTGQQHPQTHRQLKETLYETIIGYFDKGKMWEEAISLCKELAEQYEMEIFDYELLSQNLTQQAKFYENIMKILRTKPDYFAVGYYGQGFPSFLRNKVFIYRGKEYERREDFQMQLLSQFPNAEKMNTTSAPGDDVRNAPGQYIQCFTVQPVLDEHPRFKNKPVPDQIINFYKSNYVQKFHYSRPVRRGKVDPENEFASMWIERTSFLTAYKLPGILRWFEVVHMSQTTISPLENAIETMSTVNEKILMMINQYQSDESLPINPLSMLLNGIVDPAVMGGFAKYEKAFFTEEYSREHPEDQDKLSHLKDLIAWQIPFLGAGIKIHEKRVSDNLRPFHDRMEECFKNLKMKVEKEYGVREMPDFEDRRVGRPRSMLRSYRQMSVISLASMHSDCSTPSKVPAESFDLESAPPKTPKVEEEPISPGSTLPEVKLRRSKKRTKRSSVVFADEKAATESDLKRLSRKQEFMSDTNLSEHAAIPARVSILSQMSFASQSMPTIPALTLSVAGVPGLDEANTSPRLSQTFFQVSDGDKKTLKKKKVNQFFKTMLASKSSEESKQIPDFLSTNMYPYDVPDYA

B1: full length ELMO1 with V5 tag (PcDNA ELMO1-V5) (other)
chain: MPPPSDIVKVAIEWPGAYPKLMEIDQKKPLSAIIKEVCDGWSLANHEYFALQHADSSNFYITEKNRNEIKNGTILRLTTSPAQNAQQLHERIQSSSMDAKLEALKDLASLSRDVTFAQEFINLDGISLLTQMVESGTERYQKLQKIMKPCFGDMLSFTLTAFVELMDHGIVSWDTFSVAFIKKIASFVNKSAIDISILQRSLAILESMVLNSHDLYQKVAQEITIGQLIPHLQGTDQEIQTYTIAVINALFLKAPDERRQEMANILAQKQLRYIILTHVIRAQRAINNEMAHQLYVLQVLTFNLLEDRMMTKMDPQDQAQRDIIFELRRIAFDAESEPNNSSGSMEKRKSMYTRDYKKLGFINHVNPAMDFTQTPPGMLALDNMLYFAKHHQDAYIRIVLENSSREDKHECPFGRSSIELTKMLCEILKVGELPSETCNDFHPMFFTHDRSFEEFFCICIQLLNKTWKEMRATSEDFNKVMQVVKEQVMRALTTKPSSLDQFKSKLQNLSYTEILKIRQSERMNQEDFQSRPILELKEKIQPEILELIKQQRLNRLVEGTCFRKLNARRRQDKFWYCRLSPNHKVLHYGDLEESPQGEVPHDSLQDKLPVADIKAVVTGKDCPHMKEKGALKQNKEVLELAFSILYDSNCQLNFIAPDKHEYCIWTDGLNALLGKDMMSDLTRNDLDTLLSMEIKLRLLDLENIQIPDAPPPIPKEPSNYDFVYDCN
notes: Expressed in 293T cells; also called mouse ELMO1; not shown: V5 (and His) tag from the PcDNA V5-His vector
binding result [1]: no binding
binding result (DOCK2 SH3 mutant G32E-HA): no binding
binding result (DOCK2 SH3 mutant P60E-HA): no binding
binding result (DOCK2 SH3 mutant F63E-HA): no binding

B2: ELMO1-del10-V5 (amino acid residues 1-613 of ELMO1) (other)
chain: MPPPSDIVKVAIEWPGAYPKLMEIDQKKPLSAIIKEVCDGWSLANHEYFALQHADSSNFYITEKNRNEIKNGTILRLTTSPAQNAQQLHERIQSSSMDAKLEALKDLASLSRDVTFAQEFINLDGISLLTQMVESGTERYQKLQKIMKPCFGDMLSFTLTAFVELMDHGIVSWDTFSVAFIKKIASFVNKSAIDISILQRSLAILESMVLNSHDLYQKVAQEITIGQLIPHLQGTDQEIQTYTIAVINALFLKAPDERRQEMANILAQKQLRYIILTHVIRAQRAINNEMAHQLYVLQVLTFNLLEDRMMTKMDPQDQAQRDIIFELRRIAFDAESEPNNSSGSMEKRKSMYTRDYKKLGFINHVNPAMDFTQTPPGMLALDNMLYFAKHHQDAYIRIVLENSSREDKHECPFGRSSIELTKMLCEILKVGELPSETCNDFHPMFFTHDRSFEEFFCICIQLLNKTWKEMRATSEDFNKVMQVVKEQVMRALTTKPSSLDQFKSKLQNLSYTEILKIRQSERMNQEDFQSRPILELKEKIQPEILELIKQQRLNRLVEGTCFRKLNARRRQDKFWYCRLSPNHKVLHYGDLEESPQGEVPHDSLQDKLPVADI
notes: Expressed in 293T cells; also called PcDNA ELMO1-del10-V5; PcDNA ELMO1-del10; not shown: V5 (and His) tag from the PcDNA V5His vector
binding result [2]: no binding

B3: ELMO1-del1-V5 (amino acid residues 147-727 of ELMO1) (other)
chain: MKPCFGDMLSFTLTAFVELMDHGIVSWDTFSVAFIKKIASFVNKSAIDISILQRSLAILESMVLNSHDLYQKVAQEITIGQLIPHLQGTDQEIQTYTIAVINALFLKAPDERRQEMANILAQKQLRYIILTHVIRAQRAINNEMAHQLYVLQVLTFNLLEDRMMTKMDPQDQAQRDIIFELRRIAFDAESEPNNSSGSMEKRKSMYTRDYKKLGFINHVNPAMDFTQTPPGMLALDNMLYFAKHHQDAYIRIVLENSSREDKHECPFGRSSIELTKMLCEILKVGELPSETCNDFHPMFFTHDRSFEEFFCICIQLLNKTWKEMRATSEDFNKVMQVVKEQVMRALTTKPSSLDQFKSKLQNLSYTEILKIRQSERMNQEDFQSRPILELKEKIQPEILELIKQQRLNRLVEGTCFRKLNARRRQDKFWYCRLSPNHKVLHYGDLEESPQGEVPHDSLQDKLPVADIKAVVTGKDCPHMKEKGALKQNKEVLELAFSILYDSNCQLNFIAPDKHEYCIWTDGLNALLGKDMMSDLTRNDLDTLLSMEIKLRLLDLENIQIPDAPPPIPKEPSNYDFVYDCN
notes: Expressed in 293T cells; also called ELMO1-dell; PcDNA ELMO1-del1-V5; not shown: V5 (and His) tag from the PcDNA V5His vector
binding result [3]: no binding

B4: ELMO1-del8-V5 (amino acid residues 345-727 of ELMO1) (other)
chain: MEKRKSMYTRDYKKLGFINHVNPAMDFTQTPPGMLALDNMLYFAKHHQDAYIRIVLENSSREDKHECPFGRSSIELTKMLCEILKVGELPSETCNDFHPMFFTHDRSFEEFFCICIQLLNKTWKEMRATSEDFNKVMQVVKEQVMRALTTKPSSLDQFKSKLQNLSYTEILKIRQSERMNQEDFQSRPILELKEKIQPEILELIKQQRLNRLVEGTCFRKLNARRRQDKFWYCRLSPNHKVLHYGDLEESPQGEVPHDSLQDKLPVADIKAVVTGKDCPHMKEKGALKQNKEVLELAFSILYDSNCQLNFIAPDKHEYCIWTDGLNALLGKDMMSDLTRNDLDTLLSMEIKLRLLDLENIQIPDAPPPIPKEPSNYDFVYDCN
notes: Expressed in 293T cells; also called PcDNA ELMO1-del8-V5; not shown: V5 (and His) tag from the PcDNA V5His vector
binding result [3]: no binding
